In US20100144645A1, “COMPOSITIONS AND METHODS FOR ENHANCING […] POTENCY OF […]-COMPOUNDS, A[…] ADVERSE SIDE EFFECTS, AND […] ABUSE” (SHIRE LLC, priority 2006, published 2010):
Counter-ions that a name gives are not always drawn. Residues, ends and D or L forms follow the SMILES beside them. *: point of attachment. X4 = CC(=O)Oc1ccc2c3c1OC1C(O*)=CCC4[C@@H](C2)N(C)CC[C@]314; X2 = CN1CC[C@]23c4c5ccc(O)c4O[C@H]2C(O*)=CC[C@H]3[C@H]1C5; X1 = COc1ccc2c3c1OC1C(O*)=CCC4[C@@H](C2)N(C)CC[C@]314; X3 = CN1CC[C@]23c4c5ccc(O)c4OC2C(O*)=CCC3[C@H]1C5

How the values were obtained:
[1] = stability 90 C., 20 min (V, BP, TW, BS) of hydrocodone conjugates; details: for stability 90 C., 20 min BP: BP (abbreviation not defined); for stability 90 C., 20 min BS: BS (abbreviation not defined); for stability 90 C., 20 min TW: TW (abbreviation not defined); for stability 90 C., 20 min V: V (abbreviation not defined)
[2] = Oral bioavailability of hydrocodone conjugates (plasma hydrocodone plus hydromorphone); details: for bioavailabiltty (% HC) oral AUC / bioavailabiltty (% HC) oral Cmax: rats, relative to hydrocodone; for Oral:IN Index AUC: ratio of oral to IN AUC (% HC); for Oral:IN Index Cmax: ratio of oral to IN Cmax (% HC)
[3] = Intranasal bioavailability of hydromorphone conjugates; details: rats; for IN AUC %: corrected value calculated based on the bioavailability of the control (HM); for IN Cmax %: corrected value calculated based on the control (HM)
[4] = Oral bioavailability of hydromorphone conjugates; details: rats; for Oral AUC %: corrected value calculated based on the bioavailability of the control (HM); for Oral Cmax %: corrected value calculated based on the control (HM)
[5] = Intranasal bioavailability of hydrocodone conjugates; details: rats, relative to hydrocodone

| Compound | IN AUC % [3] | IN Cmax % [3] | Oral AUC % [4] | Oral Cmax % [4] | other results |
| --- | --- | --- | --- | --- | --- |
| CC[C@H](C)[C@H](NC(=O)[C@@H]1CCCN1C(=O)[C@@H]1CCCN1C(=O)[C@H](Cc1ccc(O)cc1)NC(=O)[C@@H](N)Cc1ccc(O)cc1)C(=O)OC1=CCC2[C@H]3Cc4ccc(OC)c5c4[C@@]2(CCN3C)C1O5 (stereo partly drawn) [Tyr2-Pro2-Ile-HC] (H-YYPPI-X1) |  |  |  |  | stability 90 C., 20 min BP [1]: 100; stability 90 C., 20 min BS [1]: 100; stability 90 C., 20 min TW [1]: 83; stability 90 C., 20 min V [1]: 0; bioavailabiltty (% HC) oral AUC [2]: 218 % HC; bioavailabiltty (% HC) oral Cmax [2]: 213 % HC |
| CC(C)C[C@H](NC(=O)[C@H](Cc1ccc(O)cc1)NC(=O)[C@@H](N)Cc1ccc(O)cc1)C(=O)OC1=CCC2[C@H]3Cc4ccc(O)c5c4[C@@]2(CCN3C)C1O5 (stereo partly drawn) [YYL-HM] | 74% | 75% | 12% | 30% |  |
| CC[C@H](C)[C@H](NC(=O)[C@@H]1CCCN1)C(=O)N[C@H](C(=O)OC1=CCC2[C@H]3Cc4ccc(OC)c5c4[C@@]2(CCN3C)C1O5)[C@@H](C)CC (stereo partly drawn) [Pro-Ile-Ile-HC] |  |  |  |  | stability 90 C., 20 min BP [1]: 47; stability 90 C., 20 min BS [1]: 100; stability 90 C., 20 min TW [1]: 83; stability 90 C., 20 min V [1]: 0; bioavailabiltty (% HC) IN AUC [5]: 86 % HC; bioavailabiltty (% HC) IN Cmax [5]: 102 % HC; bioavailabiltty (% HC) oral AUC [2]: 104 % HC; bioavailabiltty (% HC) oral Cmax [2]: 99 % HC; Oral:IN Index AUC [2]: 1.21; Oral:IN Index Cmax [2]: 0.97 |
| CC[C@H](C)[C@H](NC(=O)[C@H](CC(=O)O)NC(=O)[C@H](CC(=O)O)NC(=O)[C@H](CCC(=O)O)NC(=O)[C@@H](N)CCC(=O)O)C(=O)OC1=CCC2[C@H]3Cc4ccc(OC)c5c4[C@@]2(CCN3C)C1O5 (stereo partly drawn) [Glu2-Asp2-Ile-HC] (H-EEDDI-X1) |  |  |  |  | stability 90 C., 20 min BP [1]: 77; stability 90 C., 20 min BS [1]: 100; stability 90 C., 20 min TW [1]: 15; stability 90 C., 20 min V [1]: 1; bioavailabiltty (% HC) IN AUC [5]: 53 % HC; bioavailabiltty (% HC) IN Cmax [5]: 81 % HC; bioavailabiltty (% HC) oral AUC [2]: 108 % HC; bioavailabiltty (% HC) oral Cmax [2]: 129 % HC; Oral:IN Index AUC [2]: 2.04; Oral:IN Index Cmax [2]: 1.59 |
| CC(C)C[C@H](NC(=O)[C@H](Cc1ccccc1)NC(=O)[C@@H](N)Cc1ccccc1)C(=O)OC1=CC[C@H]2[C@H]3Cc4ccc(O)c5c4[C@@]2(CCN3C)[C@H]1O5 [FFL-HM] | 92% | 96% | 11% | 24% |  |
| CC[C@H](C)[C@H](NC(=O)CNC(=O)CN)C(=O)OC1=CCC2[C@H]3Cc4ccc(O)c5c4[C@@]2(CCN3C)C1O5 (stereo partly drawn) [GGI-HM] | 24% | 66% | 17% | 32% |  |
| CC(C)[C@H](NC(=O)[C@H](Cc1ccc(O)cc1)NC(=O)[C@@H](N)Cc1ccc(O)cc1)C(=O)OC1=CCC2[C@H]3Cc4ccc(O)c5c4[C@@]2(CCN3C)C1O5 (stereo partly drawn) [YYV-HM] | 73% | 73% | 30% | 53% |  |
| CC(C)[C@H](NC(=O)CNC(=O)CN)C(=O)OC1=CCC2[C@H]3Cc4ccc(O)c5c4[C@@]2(CCN3C)C1O5 (stereo partly drawn) [GGV-HM] | 51% | 73% | 53% | 63% |  |
| CC(C)C[C@H](NC(=O)[C@H](CCC(=O)O)NC(=O)[C@@H](N)CCC(=O)O)C(=O)OC1=CC[C@H]2[C@H]3Cc4ccc(O)c5c4[C@@]2(CCN3C)[C@H]1O5 [EEL-HM] | 84% | 98% | 27% | 49% |  |
| CC(C)C[C@H](NC(=O)[C@@H]1CCCN1C(=O)[C@@H]1CCCN1)C(=O)OC1=CCC2[C@H]3Cc4ccc(O)c5c4[C@@]2(CCN3C)C1O5 (stereo partly drawn) [PPL-HM] | 53% | 70% | 22% | 45% |  |
| CC[C@H](C)[C@H](NC(=O)[C@H](Cc1ccccc1)NC(=O)[C@@H](N)Cc1ccccc1)C(=O)OC1=CC[C@H]2[C@H]3Cc4ccc(O)c5c4[C@@]2(CCN3C)[C@H]1O5 [FFI-HM] | 79% | 92% | 18% | 47% |  |
| CC[C@H](C)[C@H](NC(=O)CNC(=O)CN)C(=O)OC1=CCC2[C@H]3Cc4ccc(OC)c5c4[C@@]2(CCN3C)C1O5 (stereo partly drawn) [Gly-Gly-Ile-HC] |  |  |  |  | stability 90 C., 20 min BP [1]: 100; stability 90 C., 20 min BS [1]: 100; stability 90 C., 20 min TW [1]: 93; stability 90 C., 20 min V [1]: 0 |
| CC(C)C[C@H](NC(=O)[C@H](CCCCN)NC(=O)[C@@H](N)CCCCN)C(=O)OC1=CCC2[C@H]3Cc4ccc(O)c5c4[C@@]2(CCN3C)C1O5 (stereo partly drawn) [KKL-HM] | 87% | 96% | 24% | 50% |  |
| CC[C@H](C)[C@H](NC(=O)[C@H](Cc1ccc(O)cc1)NC(=O)[C@@H](N)Cc1ccc(O)cc1)C(=O)OC1=CCC2[C@H]3Cc4ccc(O)c5c4[C@@]2(CCN3C)C1O5 (stereo partly drawn) [YYI-HM] | 88% | 86% | 32% | 66% |  |
| CC[C@H](C)[C@H](NC(=O)[C@H](Cc1ccccc1)NC(=O)[C@H](Cc1ccccc1)NC(=O)[C@H](Cc1ccc(O)cc1)NC(=O)[C@@H](N)Cc1ccc(O)cc1)C(=O)OC1=CCC2[C@H]3Cc4ccc(OC(C)=O)c5c4[C@@]2(CCN3C)C1O5 (stereo partly drawn) [YYFFI-HM-OAc] (H-YYFFI-X4) | 59% | 72% | 29% | 40% |  |
| CC(C)[C@H](NC(=O)[C@@H]1CCCN1C(=O)[C@@H]1CCCN1)C(=O)OC1=CCC2[C@H]3Cc4ccc(O)c5c4[C@@]2(CCN3C)C1O5 (stereo partly drawn) [PPV-HM] | 71% | 101% | 24% | 55% |  |
| CC(C)C[C@H](NC(=O)CNC(=O)CN)C(=O)OC1=CCC2[C@H]3Cc4ccc(O)c5c4[C@@]2(CCN3C)C1O5 (stereo partly drawn) [GGL-HM] | 52% | 85% | 22% | 43% |  |
| CC[C@H](C)[C@H](NC(=O)[C@H](CCCCN)NC(=O)[C@@H](N)CCCCN)C(=O)OC1=CCC2[C@H]3Cc4ccc(O)c5c4[C@@]2(CCN3C)C1O5 (stereo partly drawn) [KKI-HM] | 68% | 85% | 24% | 56% |  |
| CC(C)[C@H](NC(=O)[C@H](CCC(=O)O)NC(=O)[C@@H](N)CCC(=O)O)C(=O)OC1=CC[C@H]2[C@H]3Cc4ccc(O)c5c4[C@@]2(CCN3C)[C@H]1O5 [EEV-HM] | 31% | 70% | 21% | 50% |  |
| CN1CC[C@]23c4c5ccc(O)c4O[C@H]2C(OC(=O)[C@H](Cc2ccccc2)NC(=O)[C@H](Cc2ccccc2)NC(=O)[C@H](Cc2ccccc2)NC(=O)[C@H](CCC(=O)O)NC(=O)[C@@H](N)CCC(=O)O)=CC[C@H]3[C@H]1C5 [EEFFF-HM, Glu2-Phe3-Hydromorphone.Dihydrochloride] (H-EEFFF-X2) | 52% | 57% | 79% | 78% |  |
| CC[C@H](C)[C@H](NC(=O)[C@H](CCC(=O)O)NC(=O)[C@@H](N)CCC(=O)O)C(=O)OC1=CC[C@H]2[C@H]3Cc4ccc(O)c5c4[C@@]2(CCN3C)[C@H]1O5 [EEI-HM] | 59% | 88% | 56% | 73% |  |
| CC[C@H](C)[C@H](NC(=O)[C@H](Cc1ccccc1)NC(=O)[C@H](Cc1ccccc1)NC(=O)[C@H](Cc1ccc(O)cc1)NC(=O)[C@@H](N)Cc1ccc(O)cc1)C(=O)OC1=CCC2[C@H]3Cc4ccc(O)c5c4[C@@]2(CCN3C)C1O5 (stereo partly drawn) [YYFFI-HM] (H-YYFFI-X3) | 4% | 7% | 40% | 52% |  |
| Gly-Gly-Leu-Hydrocodone [Gly-Gly-Leu-HC] |  |  |  |  | stability 90 C., 20 min BP [1]: 100; stability 90 C., 20 min BS [1]: 100; stability 90 C., 20 min TW [1]: 85; stability 90 C., 20 min V [1]: 1 |
| CC[C@H](C)[C@H](NC(=O)[C@@H]1CCCN1C(=O)[C@@H]1CCCN1)C(=O)OC1=CCC2[C@H]3Cc4ccc(O)c5c4[C@@]2(CCN3C)C1O5 (stereo partly drawn) [PPI-HM] | 77% | 95% | 21% | 60% |  |
| (d)-Lys-(1)-Lys-Ile-Hydrocodone [(d)Lys(I)Lys-Ile-HC] |  |  |  |  | stability 90 C., 20 min BP [1]: 69; stability 90 C., 20 min BS [1]: 100; stability 90 C., 20 min TW [1]: 74; stability 90 C., 20 min V [1]: 0 |
| CC(C)[C@H](NC(=O)[C@H](CCCCN)NC(=O)[C@@H](N)CCCCN)C(=O)OC1=CCC2[C@H]3Cc4ccc(O)c5c4[C@@]2(CCN3C)C1O5 (stereo partly drawn) [KKV-HM] | 75% | 89% | 43% | 60% |  |
| CC(C)[C@H](NC(=O)[C@H](Cc1ccccc1)NC(=O)[C@@H](N)Cc1ccccc1)C(=O)OC1=CC[C@H]2[C@H]3Cc4ccc(O)c5c4[C@@]2(CCN3C)[C@H]1O5 [FFV-HM] | 98% | 103% | 8% | 36% |  |
| CC[C@H](C)[C@H](NC(=O)[C@@H]1CCCN1C(=O)[C@@H]1CCCN1)C(=O)OC1=CCC2[C@H]3Cc4ccc(OC)c5c4[C@@]2(CCN3C)C1O5 (stereo partly drawn) [Pro-Pro-Ile-HC] |  |  |  |  | stability 90 C., 20 min BP [1]: 16; stability 90 C., 20 min BS [1]: 100; stability 90 C., 20 min TW [1]: 70; stability 90 C., 20 min V [1]: 0 |
